According to patent publication US20260000087:

B1: camel chymosin (CHY-MAX M from Chr. Hansen A/S) (protein)
chain: GKVAREPLTSYLDSQYFGKIYIGTPPQEFTVVFDTGSSDLWVPSIYCKSNVCKNHHRFDPRKSSTFRNLGKPLSIHYGTGSMEGFLGYDTVTVSNIVDPNQTVGLSTEQPGEVFTYSEFDGILGLAYPSLASEYSVPVFDNMMDRHLVARDLFSVYMDRNGQGSMLTLGAIDPSYYTGSLHWVPVTLQQYWQFTVDSVTINGVAVACVGGCQAILDTGTSVLFGPSSDILKIQMAIGATENRYGEFDVNCGNLRSMPTVVFEINGRDYPLSPSAYTSKDQGFCTSGFQGDNNSELWILGDVFIREYYSVFDRANNRVGLAKAI
B2: aspartic protease or coagulant or chymosin represented by SEQ ID NO: 1 (protein)
chain: GKIAREPLTNYLDTEYFGKIQIGSPPQEFTVVFDTGSSDLWVPSVFCNSDACQNHHRFNPSKSSTFQNMNRPLSIQYGTGSMQGFLGYDTVTVSNIVVPHQTVGLSTQEPGDIFTYSEFDGILGLAYPSLASQYSVPVFDNMMKQHLVAQDLFSVYMNSQGQGSMLILGAIDPSYYVGALHWVPVTVQQYWQFTVDRITVDGVVVACDGGCQAILDTGTSLLVGPSSDILNIQTVIGATQGQYGEFDIDCGSLRSKPTVVFEINGREYPLPPTAYTNQDQGFCTSGFQGDDSQQWVLGDVFIREYYSVFDRVNNRVGLAKAI
B3: aspartic protease or coagulant or chymosin represented by SEQ ID NO: 2 (protein)
chain: GKVARESLTNYLDCQYFGKIYIGTPPQEFTVVFDTGSSDLWVPSVYCNSDACQNHHRFDPSKSSTFQNMDKSLSIQYGTGSMQGLLGYDTVTVSNIVDRHQTVGLSTQEPGDVFTYSEFDGILGLAYPSLASEYSVPVFDNMMDRHLVAQDLFSVYMSRNEQGSMLTLGAIDRSYYTGSLHWIPVTVQEYWQFTVDRVTVDGVVVACDGGCQAILDTGTSMLVGPGSDIFNIQQAIGATEGQFGEFDIDCGRLSSMPTVVFEINGKKYPLPPSAYTSQDQGFCTSGFQGDYSSQQWILGDVFIREYYSVFDRASNRVGLAKAI
B4: aspartic protease represented by SEQ ID NO: 4 (protein)
chain: GEVASEPLTSYLDSQYFGKIYIGTPPQEFTVVFDTGSSDLWVPSVYCKSDACQNHQRFDPSMSSTFQNLGKPLSIQYGTGSMQGFLGYDTVTVSDIVDPQQTVGLSTQEPGDVFTYSEFDGILGLAYPSLASEYSVPVFDNMMNRHLVAQDLFSVYMDRNGQESMLTLGAIDPSYYTGSLHWVPVTLQKYWQFTVDSVTIGGVVVACDGGCQAILDTGTSMLVGPSSDILNIQMAIGATQNQYGEFDIDCGSLSSMPTVVFEINSRMYPLTPSAYTNQDQGFCTSGFQGENNSQQWILGDVFIREYYSVFDRANNRVGLAKAV
B5: bovine chymosin (CHY-MAX Plus from Chr. Hansen A/S) (protein)
chain: GEVASVPLTNYLDSQYFGKIYLGTPPQEFTVLFDTGSSDFWVPSIYCKSNACKNHQRFDPRKSSTFQNLGKPLSIHYGTGSMQGILGYDTVTVSNIVDIQQTVGLSTQEPGDVFTYAEFDGILGMAYPSLASEYSIPVFDNMMNRHLVAQDLFSVYMDRNGQESMLTLGAIDPSYYTGSLHWVPVTVQQYWQFTVDSVTISGVVVACEGGCQAILDTGTSKLVGPSSDILNIQQAIGATQNQYGEFDIDCDNLSYMPTVVFEINGKMYPLTPSAYTSQDQGFCTSGFQSENHSQKWILGDVFIREYYSVFDRANNLVGLAKAI
B6: aspartic protease or coagulant or chymosin represented by SEQ ID NO: 3 (protein)
chain: GEAAKVTDEPLTNYLDSQYFGKIYIGTPPQEFTVVFDTGSSNLWVPSVYCNSDACQNHHRFNPASSTTFRSTQEPLSIQYGTGSMEGVLGYDTVTVSQIVVPDQIFGLSTQEPGEIFTYSEFDGILGLGYPSLAEDQATPVFDNMMNKNLVAQDLFSVYMSRDSQGSMLILGAIDPSYYTGSLHWVPVTEQGYWQFSVDSITVNGQVVACEGGCQAILDTGTSLLVGPSYDIANIQSIIGATQGQYGEYDINCSNLSSMPTVVVHINGRQYPLPPSAYTNQDQGLCSSGFQSEGSDQLWILGDVFIREYYSVFDRGNNRVGLATAV

Biological target: T1, alphaS1-casein, P02662
T1 chain: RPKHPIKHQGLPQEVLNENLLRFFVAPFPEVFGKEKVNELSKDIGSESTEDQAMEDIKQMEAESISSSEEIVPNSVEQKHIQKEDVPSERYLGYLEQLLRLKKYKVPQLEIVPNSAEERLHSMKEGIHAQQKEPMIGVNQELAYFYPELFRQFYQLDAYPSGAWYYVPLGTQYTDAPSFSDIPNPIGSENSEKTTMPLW

| Protein | Degradation of intact alphaS1-casein (% of reference A) (% of reference A) |
| --- | --- |
| B1 | 38 |
| B2 | 135 |
| B3 | 71 |
| B4 | 105 |
| B5 | 100 |
| B6 | 204 |
